{"source": "paper PMC7948593", "about": "“Dynamic multimerization of Dab2–Myosin VI complexes regulates cargo processivity while minimizing cortical actin reorganization” (The Journal of Biological Chemistry, 2021)", "molecules": {"B1": {"name": "Dab2 myosin interacting region (MIR) with C-terminal eGFP (domain or fragment, human, UniProt P98082 675-713, looked up)", "chain": "SSGTLSAFASYFNSKVGIPQENADHDDFDANQLLNKINE", "notes": "Dab2, human, a.a; fluorophore joined through a flexible (Gly-Ser-Gly) x 2 repeat; Held on DNA nanotubes or surfaces through a GFP nanobody (a tool); also called Dab2-MIR-GFP; GFP-tagged Dab2 MIR; not shown: eGFP, C-terminal, kept"}, "B2": {"name": "Cy3-labeled full-length myosin VI (natural protein, human, UniProt Q9UM54 1-1294, looked up)", "chain": "MEDGKPVWAPHPTDGFQMGNIVDIGPDSLTIEPLNQKGKTFLALINQVFPAEEDSKKDVEDNCSLMYLNEATLLHNIKVRYSKDRIYTYVANILIAVNPYFDIPKIYSSEAIKSYQGKSLGTRPPHVFAIADKAFRDMKVLKMSQSIIVSGESGAGKTENTKFVLRYLTESYGTGQDIDDRIVEANPLLEAFGNAKTVRNNNSSRFGKFVEIHFNEKSSVVGGFVSHYLLEKSRICVQGKEERNYHIFYRLCAGASEDIREKLHLSSPDNFRYLNRGCTRYFANKETDKQILQNRKSPEYLKAGSMKDPLLDDHGDFIRMCTAMKKIGLDDEEKLDLFRVVAGVLHLGNIDFEEAGSTSGGCNLKNKSAQSLEYCAELLGLDQDDLRVSLTTRVMLTTAGGTKGTVIKVPLKVEQANNARDALAKTVYSHLFDHVVNRVNQCFPFETSSYFIGVLDIAGFEYFEHNSFEQFCINYCNEKLQQFFNERILKEEQELYQKEGLGVNEVHYVDNQDCIDLIEAKLVGILDILDEENRLPQPSDQHFTSAVHQKHKDHFRLTIPRKSKLAVHRNIRDDEGFIIRHFAGAVCYETTQFVEKNNDALHMSLESLICESRDKFIRELFESSTNNNKDTKQKAGKLSFISVGNKFKTQLNLLLDKLRSTGASFIRCIKPNLKMTSHHFEGAQILSQLQCSGMVSVLDLMQGGYPSRASFHELYNMYKKYMPDKLARLDPRLFCKALFKALGLNENDYKFGLTKVFFRPGKFAEFDQIMKSDPDHLAELVKRVNHWLTCSRWKKVQWCSLSVIKLKNKIKYRAEACIKMQKTIRMWLCKRRHKPRIDGLVKVGTLKKRLDKFNEVVSVLKDGKPEMNKQIKNLEISIDTLMAKIKSTMMTQEQIQKEYDALVKSSEELLSALQKKKQQEEEAERLRRIQEEMEKERKRREEDEKRRRKEEEERRMKLEMEAKRKQEEEERKKREDDEKRIQAEVEAQLARQKEEESQQQAVLEQERRDRELALRIAQSEAELISDEAQADLALRRSLDSYPVSKNDGTRPKMTPEQMAKEMSEFLSRGPAVLATKAAAGTKKYDLSKWKYAELRDTINTSCDIELLAACREEFHRRLKVYHAWKSKNKKRNTETEQRAPKSVTDYDFAPFLNNSPQQNPAAQIPARQREIEMNRQQRFFRIPFIRPADQYKDPQSKKKGWWYAHFDGPWIARQMELHPDKPPILLVAGKDDMEMCELNLEETGLTRKRGAEILPRQFEEIWERCGGIQYLQNAIESRQARPTYATAMLQSLLK", "modifications": "Cy3 label", "notes": "Myosin VI, human, the isoform containing both the long insert (LI) and short insert (SI); probably Myosin VI FL-SNAP (C-terminal SNAP, FLAG and 6X-His tags); Assay buffers held 10 uM calmodulin; The surface gliding assays used dark myosin VI FL-FLAG; also called Cy3-myosin VI; myosin VI FL"}}, "key": {"myosin VI CBD": {"biological_target": "myosin VI CBD (UniProt Q64331)", "sequence (Q64331 1137-1262)": "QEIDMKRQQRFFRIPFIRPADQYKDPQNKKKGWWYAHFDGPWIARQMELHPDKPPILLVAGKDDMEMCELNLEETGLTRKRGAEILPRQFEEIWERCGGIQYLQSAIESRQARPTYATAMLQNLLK", "conditions": "cited from earlier work"}, "[1]": {"biological_target": "T1, Myosin VI cargo-binding domain (CBD) with C-terminal mCerulean (human, UniProt Q9UM54 991-1294, C-terminal mCerulean omitted. Limits are those printed for the Kd FRET assay (CBD 991-1294, LI+SI isoform of 1294 aa); the construct list instead gives 1030-1284.)", "T1 chain": "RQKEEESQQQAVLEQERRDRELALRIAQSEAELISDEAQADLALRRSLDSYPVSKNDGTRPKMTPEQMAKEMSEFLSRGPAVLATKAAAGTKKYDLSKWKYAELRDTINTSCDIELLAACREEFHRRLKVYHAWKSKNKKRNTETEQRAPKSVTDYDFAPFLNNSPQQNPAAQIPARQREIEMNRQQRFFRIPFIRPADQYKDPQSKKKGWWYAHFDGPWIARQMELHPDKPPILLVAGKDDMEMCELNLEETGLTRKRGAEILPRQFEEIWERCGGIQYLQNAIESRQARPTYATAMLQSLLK", "assay": "FRET or BRET; bimolecular FRET titration in solution; CBD-mCer held constant at 30 nM, increasing DAB2-MIR-mCit titrated in; excitation 430 nm, cross-excitation spectra subtracted", "conditions": "both partners purified"}, "[2]": {"biological_target": "B2", "assay": "single-molecule TIRF binding assay; adaptor-GFP held through GFP nanobody-SNAP on DNA nanotubes; Cy3-labeled myosin VI at 50 pM in AB.BSA.Cam; 20 Hz for 3 min; bound and rebinding times fitted to a single-exponential decay", "conditions": "both partners purified"}, "[3]": {"biological_target": "B1", "assay": "single-molecule TIRF binding assay; adaptor-GFP held through GFP nanobody-SNAP on DNA nanotubes; Cy3-labeled myosin VI at 50 pM in AB.BSA.Cam; 20 Hz for 3 min; bound and rebinding times fitted to a single-exponential decay", "conditions": "both partners purified"}}, "note": "Ends that are not written are not given here.", "data": [{"molecule": "Dab2 MIR (from UniProt P98082)", "values": [{"measurement": "Kd", "setting": "myosin VI CBD", "value": 500, "unit": "nM"}]}, {"molecule": "SSGTLSAFASYFNSKVGIPQENADHDDFDANQLLNKINE-mCitrine (domain or fragment, human, UniProt P98082 675-713, looked up, Dab2, human, a.a; fluorophore joined through a flexible (Gly-Ser-Gly) x 2 repeat; Cloned into pBiex1; also called DAB2-MIR-mCit; mCit-MIR; not shown: mCitrine, C-terminal, kept)", "note": "[Dab2 myosin interacting region (MIR) with C-terminal mCitrine]", "values": [{"measurement": "Kd", "setting": "[1]", "value": "~184", "unit": "nM"}]}, {"molecule": "B1", "values": [{"measurement": "koff", "setting": "[2]", "value": 0.91, "unit": "s⁻¹"}]}, {"molecule": "B2", "values": [{"measurement": "half-life of the interaction", "setting": "[3]", "value": "~1.2", "unit": "s"}]}]}
